# US20030211075A1 (priority 2001, published 2003)
# Positions count from the first letter of the chain named. Names and notes keep the numbering of the source.
# B1: 2C3 anti-VEGF antibody (antibody, V domains shown)
# VH: QVQLQESGPELVKPGASVKMSCKASGYTFTSYVFHWVKQKPGQGLEWIGYINPYNDVTKYNEKFKGKATLTSDKSSSTAYMELSSLTSEDSAVYYCASYYGSSYGYYAMDDWGQGTTVTVSS
# VL: DIQLTQSPASLSVSAGEKVTMSCKSSQSLLNSGNQKNYLAWYQQKPGQPPKLLIHGASTRESGVPDRFTGSGSGTDFTLTISSVQAEDLAVYYCQNDYSYPLTFGAGTKLELKR
# B2: Annexin V: protein that binds to PS with high affinity (protein, UniProt P08758 2-320, looked up)
# Annexin A5: AQVLRGTVTDFPGFDERADAETLRKAMKGLGTDEESILTLLTSRSNAQRQEISAAFKTLFGRDLLDDLKSELTGKFEKLIVALMKPSRLYDAYELKHALKGAGTNEKVLTEIIASRTPEELRAIKQVYEEEYGSSLEDDVVGDTSGYYQRMLVVLLQANRDPDAGIDEAQVEQDAQALFQAGELKWGTDEEKFITIFGTRSVSHLRKVFDKYMTISGFQIEETIDRETSGNLEQLLLAVVKSIRSIPAYLAETLYYAMKGAGTDDHTLIRVMVSRSEIDLFNIRKEFRKNFATSLYSMIKGDTSGDYKKALLLLCGEDD
# B3: tTF219 (G164A): tTF219 with amino acid 164 (Gly) replaced by Ala (protein)
# chain: GSGTTNTVAAYNLTWKSTNFKTILEWEPKPVNQVYTVQISTKSGDWKSKCFYTTDTECDLTDEIVKDVKQTYLARVFSYPAGNVESTGSAGEPLYENSPEFTPYLETNLGQPTIQSFEQVGTKVNVTVEDERTLVRRNNTFLSLRDVFGKDLIYTLYYWKSSSSAKKTAKTNTNEFLIDVDKGENYCFSVQAVIPSRTVNRKSTDSPVECMGQEKGEFRE
# B4: tTF219 (W158R) (protein)
# chain: B3 chain with W159R, A165G
# Columns and labels:
# human endoglin (human) = human endoglin (human) (UniProt P17813); assay: in vivo localization, human/SCID animal with human skin graft containing a tumor, overnight
# HUVEC cells = assay: FACS analysis of tissue factor expression on endothelial cells; format: cell-based, human; conditions: TNFα 500 U/ml, LPS 10 μg/ml, VEGF 1 nM, 6 h
# Experimental: To analyze tissue factor expression on the surface of endothelial cells, HUVEC cells were incubated with TNFα (500 U/ml), LPS (10 μg/ml) or vascular endothelial growth factor (VEGF, 1 nM) alone or in combination for 6 h at 37°. Cells were then detached and stained for surface expression of human tissue factor with a sheep-anti-human tissue factor antibody (Haemochrom. Essen. Germany) and an appropriate FITC-conjugated secondary antibody. Fluorescent cells were detected on a flow cytometer (Becton Dickinson, San Jose, Calif.).
# Mouse endothelial cells = assay: Cell based two stage coagulation assay after TNFα
# Experimental: (§1) Mouse endothelial cells were seeded in 48 well tissue culture plates and allowed to adhere overnight. Cells were stimulated with TNFα at the following concentrations: 500 U/ml; 100 U/ml; 20 U/ml; 4 U/ml; 0.8 U/ml; 0.16 U/ml; and with medium only.
# Endothelial cells were also tested for coagulant activity in a cell based two stage coagulation assay. After incubation with TNFα, cells were washed and incubated with coagulation factor mix (0.5 μg/ml factor VIIa in a mix containing 2.8 μg/ml factor IX, 3.4 μg/ml factor X, 50 μM phospholipids, in calcium buffer). The supernatant of wells was transferred into a 96 well ELISA plate. Substrate S2765 was added and Factor Xa generation measured.
# VCAM-1 = assay: FACS for upregulation of VCAM-1 on endothelial cells; format: cell-based, mouse
# Experimental: as §1
# Endothelial cells were then investigated for upregulation of the adhesion molecule VCAM-1 by fluorescence activated cell stain (FACS). To this end, cells were stained with an antibody against murine VCAM-1, followed by an appropriate FITC-conjugated secondary antibody. Fluorescent cells were detected on a flow cytometer (Becton Dickinson, San Jose, Calif.).
# [1] = in vivo; cited from earlier work
# [2] = system: Mouse bEnd.3 endothelial cells; assay: PS translocation and viability of endothelial cells exposed to H2O2; format: cell-based
# Experimental: Mouse bEnd.3 endothelial cells were seeded at an initial density of 50,000 cells/well. Twenty-fours later cells were incubated with increasing concentrations of H2O2 (from 10 μM to 500 μM) for 1 hour at 37° C, or left untreated. At the end of the incubation, cells were washed 3 times with PBS containing 0.2% gelatin and fixed with 0.25% glutaraldehyde. Identical wells were either stained with anti-PS IgM or trypsinized and evaluated for viability by the Trypan Blue exclusion test. For the anti-PS staining, after blocking with 2% gelatin for 10 min., cells were incubated with 2 μg/ml of anti-PS antibody, followed by detection with anti-mouse IgM-HRP conjugate.
# [3] = cited from earlier work
# [4] = system: HT29 human colorectal carcinoma; assay: HT29 xenograft, tumor growth and necrosis after tTF constructs and Factor VIIa; format: in vivo, mouse; conditions: mouse, in vivo, iv
# [5] = Toxicity to mice of agents given separately; conditions: mouse, in vivo
# [6] = system: L540 human Hodgkin's disease tumors; assay: L540 tumors, immunoglobulin-tTF conjugate with etoposide; conditions: mouse, in vivo
# Experimental: The tumor test systems were: i) L540 human Hodgkin's disease tumors growing in SCID mice; ii) C1300 Muγ (interferon-secreting) neuroblastoma growing in nu/nu mice; iii) H460 human non-small cell lung carcinoma growing in nu/nu mice. To establish solid tumors, 1.5×10^7 tumor cells were injected subcutaneously into the right anterior flank of SCID or BALB/c nu/nu mice (Charles River Labs., Wilmingham, Mass.). When the tumors had grown to various diameters, mice were assigned to different experimental groups, each containing 4 to 9 mice.
# Mice bearing L540 human Hodgkin's disease tumors were treated with a complex of tTF219 and a bispecific antibody together with the anti-cancer drug, etoposide, at a conventional dose.
# [7] = progressive disease before treatment; cited from earlier work
# [8] = target: T1, recombinant human VEGF (VEGF165) (human, UniProt P15692-4 27-191); assay: competition ELISA, 1 nM VEGF on VEGFR1 (Flt-1/Fc) wells, 1000 fold molar excess of 2C3
# T1 construct: Dimeric VEGF seen at about 42 kd on blots; also called huVEGF; free VEGF
# [9] = target: T1, recombinant human VEGF (VEGF165); assay: competition ELISA, 1 nM VEGF on VEGFR1 (Flt-1/Fc) wells, 100 fold molar excess of 2C3
# [10] = system: IL-1α-stimulated bEnd.3 cells; assay: Chromogenic assay of Factor Xa formation induced by cell-bound coaguligand; format: cell-based, mouse; conditions: 10 μg per ml Annexin V
# Experimental: The ability of Annexin V to affect Factor Xa formation induced by coaguligand was determined by a chromogenic assay. […] Annexin V was added at concentrations ranging from 0.1 to 10 μg/ml and cells were incubated for 30 min, before addition of diluted Proplex T. The amount of Factor Xa generated in the presence or absence of Annexin V was determined. Each treatment was performed in duplicate and repeated at least twice.
# [11] = system: L540 Hodgkin-bearing SCID mice; assay: Annexin V inhibition of coaguligand-induced thrombosis in vivo; set-up: species or system mouse
# Experimental: The ability of Annexin V to inhibit coaguligand-induced thrombosis in vivo was examined in L540 Hodgkin-bearing SCID mice.
# Four hours after the last injection mice were anesthetized and perfused with heparinized saline. Tumors were removed, fixed with 4% formalin, paraffin-embedded and stained with hematoxylene-eosin. The number of thrombosed and non-thrombosed blood vessels were counted and the percentage of thrombosis was calculated.
# Chain of human endoglin (human) (P17813 26-658): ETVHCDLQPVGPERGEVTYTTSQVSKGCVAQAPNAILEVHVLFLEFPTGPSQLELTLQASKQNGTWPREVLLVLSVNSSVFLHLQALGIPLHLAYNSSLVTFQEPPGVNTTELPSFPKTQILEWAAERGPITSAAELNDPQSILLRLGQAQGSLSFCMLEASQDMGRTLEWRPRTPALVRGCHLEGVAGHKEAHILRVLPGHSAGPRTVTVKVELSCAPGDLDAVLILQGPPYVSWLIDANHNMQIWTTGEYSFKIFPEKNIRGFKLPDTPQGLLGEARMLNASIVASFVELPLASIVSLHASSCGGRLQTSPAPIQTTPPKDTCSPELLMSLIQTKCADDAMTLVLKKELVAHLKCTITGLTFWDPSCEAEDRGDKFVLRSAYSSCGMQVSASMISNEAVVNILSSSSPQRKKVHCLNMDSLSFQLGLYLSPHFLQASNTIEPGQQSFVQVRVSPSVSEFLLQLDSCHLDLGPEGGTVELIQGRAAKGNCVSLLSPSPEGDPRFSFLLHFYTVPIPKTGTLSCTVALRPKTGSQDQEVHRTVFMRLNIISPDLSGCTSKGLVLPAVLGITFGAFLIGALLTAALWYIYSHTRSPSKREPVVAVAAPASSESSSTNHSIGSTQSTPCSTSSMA
# T1 sequence (P15692 other isoform, or with tags, fused parts or gaps limits assumed): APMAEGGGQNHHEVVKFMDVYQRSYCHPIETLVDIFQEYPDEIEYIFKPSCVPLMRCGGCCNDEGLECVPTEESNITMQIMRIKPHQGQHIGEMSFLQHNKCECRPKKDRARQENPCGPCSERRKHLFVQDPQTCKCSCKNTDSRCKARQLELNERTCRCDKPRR
molecule,measurement,setting,value
TEC-11 anti-human endoglin antibody,% of blood vessels in the tumor periphery to which the antibody localized,human endoglin (human),84%
same,% of blood vessels throughout the tumor to which the antibody localized,human endoglin (human),46%
VEGF,tissue factor expression on the surface of HUVEC,HUVEC cells,upregulated tissue factor expression
TNFα,TNFα at which an increase over negative control was detected in the coagulation assay,Mouse endothelial cells,"0,16 U/ml"
same,"dose for procoagulant effect, fold lower than for VCAM-1 increase",Mouse endothelial cells,125 fold
same,TNFα required for measurable increase of VCAM-1 expression,VCAM-1,20 U/ml
same,tissue factor expression on the surface of HUVEC,HUVEC cells,upregulated tissue factor expression
monophosphoryl lipid A [MPL],dose known to be safe for human use,[1],100 μg/m^2
OO [H2O2],cells with PS at the cell surface,[2]; H2O2 as low as 20 μM,about 50%
same,cells with PS translocation,"[2]; H2O2 higher than 100 μM, 1 hour",~90%
same,cell viability,"[2]; low levels of H2O2 (lower than 100 μM), identical to untreated cells",95%
"Factor VIIa: activated coagulation Factor VII, recombinant human",half-life in vivo,[3],approximately two hours
same,average area of necrosis in tumor sections,[4],some necrosis
same,toxicity when given separately,[5],practically non-toxic to mice
COc1cc([C@@H]2c3cc4c(cc3[C@@H](O[C@@H]3O[C@@H]5CO[C@@H](C)O[C@H]5[C@H](O)[C@H]3O)[C@H]3COC(=O)[C@H]23)OCO4)cc(OC)c1O [etoposide],"average tumor volume, day 14",[6],1400 mm^3
"NC(=O)c1nnn(Cc2cc(Cl)c(C(=O)c3ccc(Cl)cc3)c(Cl)c2)c1N [CAI, carboxyamidotriazole]","disease stabilization, share of cancer patients",[7],49%
B1,% of VEGF bound to VEGFR1-coated wells relative to the amount bound without 2C3,[8],105%
same,% of VEGF bound to VEGFR1-coated wells relative to the amount bound without 2C3,[9],92%
B2,inhibition of factor Xa production,[10],58%
same,coaguligand-induced thrombosis and changes in tumor cell morphology after Annexin V pre-treatment,[11]; 100 μg Annexin V 2 hours before 40 μg anti-VCAM-1•tTF,completely abolished
same,tumor morphology,[11]; 100 μg Annexin V alone,did not alter tumor morphology
B3,average area of necrosis in tumor sections,[4],some necrosis
same,toxicity when given separately,[5],practically non-toxic to mice
B4,toxicity when given separately,[5],practically non-toxic to mice
